Measurements reported in FireProtDB (doi:10.1007/s11095-019-2705-5).

Settings: Homo sapiens, Thermal, fluorescence, whole UniProt chain shown

B1: Bone morphogenetic protein 2 wild type, P12643 (protein)
chain: MVAGTRCLLALLLPQVLLGGAAGLVPELGRRKFAAASSGRPSSQPSDEVLSEFELRLLSMFGLKQRPTPSRDAVVPPYMLDLYRRHSGQPGSPAPDHRLERAASRANTVRSFHHEESLEELPETSGKTTRRFFFNLSSIPTEEFITSAELQVFREQMQDALGNNSSFHHRINIYEIIKPATANSKFPVTRLLDTRLVNQNASRWESFDVTPAVMRWTAQGHANHGFVVEVAHLEEKQGVSKRHVRISRSLHQDEHSWSQIRPLLVTFGHDGKGHPLHKREKRQAKHKQRKRLKSSCKRHPLYVDFSDVGWNDWIVAPPGYHAFYCHGECPFPLADHLNSTNHAIVQTLVNSVNSKIPKACCVPTELSAISMLYLDENEKVVLKNYQDMVVEGCGCR
pH 2, Citrate
  Tm: 33 °C
pH 3, Citrate
  Tm: 41 °C
pH 4.5, Acetate
  Tm: 53 °C
pH 4.5, Malonate
  Tm: 63 °C
pH 5, Acetate
  Tm: 55 °C
pH 6, MES
  Tm: 62 °C
pH 7, MOPS
  Tm: 63 °C
pH 8.5, Tris
  Tm: 61 °C
pH 10, phosphate
  Tm: 59 °C
pH 10.5, CAPS
  Tm: 52 °C
pH 11, CAPS
  Tm: 32 °C
